Target: T1, protein encoded by ph01207 (Homo sapiens, UniProt O60241, DEL308-362)
T1 construct: expressed in transfected cells; host or cells: CHO-K1 (HA-ph01207#10-6, FERM BP-10101), T8HA-attR/pCINeo
T1 sequence (O60241 with tags, fused parts or gaps DEL308-362): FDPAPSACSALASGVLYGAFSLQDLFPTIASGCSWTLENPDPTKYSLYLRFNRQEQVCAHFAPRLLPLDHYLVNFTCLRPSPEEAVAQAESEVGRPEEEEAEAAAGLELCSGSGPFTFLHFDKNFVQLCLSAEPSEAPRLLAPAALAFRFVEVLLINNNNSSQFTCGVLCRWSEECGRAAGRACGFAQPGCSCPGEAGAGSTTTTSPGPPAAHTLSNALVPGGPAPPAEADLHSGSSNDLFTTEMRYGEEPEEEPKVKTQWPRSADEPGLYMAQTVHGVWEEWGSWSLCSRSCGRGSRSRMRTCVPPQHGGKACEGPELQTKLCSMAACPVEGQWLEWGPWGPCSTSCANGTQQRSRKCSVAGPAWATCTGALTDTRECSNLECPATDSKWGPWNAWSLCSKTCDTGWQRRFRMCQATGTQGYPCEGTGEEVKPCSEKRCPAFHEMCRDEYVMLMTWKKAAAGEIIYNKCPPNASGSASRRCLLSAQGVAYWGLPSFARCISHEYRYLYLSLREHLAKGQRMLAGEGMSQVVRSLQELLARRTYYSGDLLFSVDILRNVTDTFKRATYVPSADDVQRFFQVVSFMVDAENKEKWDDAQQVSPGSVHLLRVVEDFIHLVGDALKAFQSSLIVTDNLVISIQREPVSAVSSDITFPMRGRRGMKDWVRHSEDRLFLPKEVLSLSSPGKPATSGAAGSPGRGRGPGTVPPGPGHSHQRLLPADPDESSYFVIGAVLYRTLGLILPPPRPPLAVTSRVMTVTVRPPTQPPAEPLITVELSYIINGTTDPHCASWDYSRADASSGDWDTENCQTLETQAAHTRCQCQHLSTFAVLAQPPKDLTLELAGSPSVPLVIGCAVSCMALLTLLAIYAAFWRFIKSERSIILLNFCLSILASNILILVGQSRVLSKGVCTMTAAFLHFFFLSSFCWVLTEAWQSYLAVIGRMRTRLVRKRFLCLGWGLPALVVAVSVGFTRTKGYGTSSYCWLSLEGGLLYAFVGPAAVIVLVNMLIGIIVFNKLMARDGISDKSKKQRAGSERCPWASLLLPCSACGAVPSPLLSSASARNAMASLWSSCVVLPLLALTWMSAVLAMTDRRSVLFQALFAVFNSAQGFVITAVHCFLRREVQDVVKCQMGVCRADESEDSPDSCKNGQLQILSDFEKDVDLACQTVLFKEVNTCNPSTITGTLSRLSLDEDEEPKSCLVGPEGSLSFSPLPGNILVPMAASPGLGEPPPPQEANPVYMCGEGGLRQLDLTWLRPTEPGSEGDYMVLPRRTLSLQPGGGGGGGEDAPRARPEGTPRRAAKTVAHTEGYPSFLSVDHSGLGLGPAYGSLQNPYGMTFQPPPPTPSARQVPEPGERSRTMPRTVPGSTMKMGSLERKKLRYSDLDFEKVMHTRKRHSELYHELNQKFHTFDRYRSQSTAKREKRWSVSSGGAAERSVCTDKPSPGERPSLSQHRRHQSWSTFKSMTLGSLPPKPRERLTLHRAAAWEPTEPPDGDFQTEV
Test: Changes in intracellular Ca2+ concentration in HA-ph01207#10-6 cell strain (CHO-K1 stably expressing ph01207)
Type: cell-based
Protocol: Changes in the intracellular calcium (Ca^2+) concentration induced by CCK-8S (SEQ ID NO: 14), CCK-8NS, or CCK-4 were measured using the cell strains expressing ph01207 prepared in Example 2. The cell strains prepared in Example 2 were eight strains that expressed the protein encoded by ph01207 as FLAG-tag fusion proteins and four strains that expressed the protein encoded by ph01207 as HA-tag fusion proteins. Of these, the HA-ph01207#10-6 cell strain, a strain obtained by cloning one of the cell strains that stably expressed the protein encoded by ph01207 as HA-tag fusion proteins, was used in this example. CCK-8NS was a CCK octapeptide having the same amino acid sequence as that of CCK-8S (SEQ ID NO: 14), but a region from the C terminus to the seventh tyrosine residue was not sulfated. CCK-4 was a tetrapeptide comprising residues from the C terminus to the fourth amino acid of CCK-8S (SEQ ID NO: 14).
The specific method for measuring changes in the intracellular Ca^2+ concentration in the HA-ph01207#10-6 cell strain induced by CCK-8S (SEQ ID NO: 14) and the results are described below. The HA-ph01207#10-6 cell strain was seeded on a 96-well plate (a plate with a black wall and a transparent bottom) at a cell count of 2×10^4/100 μL medium/well and cultured at 37° C. in the presence of 5% CO2. As a medium, DMEM/F12 (Gibco) containing 10% fetal calf serum (Moregate) was used. On the following day, 50 μL of the medium was removed from each well, 50 μL of a loading buffer was added to each well, and the mixture was reacted at room temperature for 1.5 h, so that a fluorescent dye contained in the loading buffer should be taken up into the cell. The loading buffer was prepared by dissolving component A of the FLIPR Calcium 3 Assay Kit (Molecular Device) in a solution obtained by adding 0.1 mL of 500 mM probenecid (Sigma) to 9.9 mL of component B. After reaction, changes over time in the fluorescence intensity in each well after addition of CCK-8S (Peptide Institute, Inc.) were measured using the FLEX station (Molecular Device). Furthermore, similar measurement was performed for CCK-8NS (Peptide Institute, Inc.) and CCK-4 (Peptide Institute, Inc.). 0.52 mg of CCK-8S (SEQ ID NO: 14) was dissolved in 4.5 mL of 1% NaHCO3 (Wako) to prepare a solution having 0.1 mM concentration. 0.53 mg of CCK-8NS was dissolved in 0.50 mL of dimethyl sulfoxide (DMSO, Sigma), and then 4.50 mL of redistilled water H2O was added to prepare a solution having 0.1 mM concentration. 0.54 mg of CCK-4 was dissolved in 0.46 mL of DMSO, 4.09 mL of redistilled water was added to prepare a solution having 0.2 mM concentration. […]

Change in intracellular Ca2+ concentration (fluorescence intensity) (peptide at final concentration 1 nM) | Molecule | Change in intracellular Ca2+ concentration (fluorescence intensity) (A23187 10 μM, positive control)
increased | cholecystokinin octapeptide sulfated form [CCK-8S] | 
 | CNc1ccc2oc(C[C@H]3O[C@@]4(CC[C@H]3C)O[C@H]([C@H](C)C(=O)c3ccc[nH]3)[C@H](C)C[C@H]4C)nc2c1C(=O)O [A23187] | increased

From patent publication US20100029702A1, “Method For Identification of Compound Having Anti-Anxiety Effect” (priority 2006, published 2010)
